Measurements published in patent US20230034186A1 (DRAGONFLY THERAPEUTICS, published 2023).

Target: HER2 (human, UniProt P04626 23-1255)
Assay: cell-based or functional assay

EC50 in KHYG-1-CD16V cell-mediated cytolysis of BT-20 cells: 1.16 nM
B1: A49-F3′-TriNKET-Trastuzumab (bispecific antibody)
heavy: EVQLVESGGGLVKPGGSLRLSCAASGFTFSSYSMNWVRQAPGKGLEWVSSISSSSSYIYYADSVKGRFTISRDNAKNSLYLQMNSLRAEDTAVYYCARGAPMGAAAGWFDPWGQGTLVTVSSASTKGPSVFPLAPSSKSTSGGTAALGCLVKDYFPEPVTVSWNSGALTSGVHTFPAVLQSSGLYSLSSVVTVPSSSLGTQTYICNVNHKPSNTKVDKKVEPKSCDKTHTCPPCPAPELLGGPSVFLFPPKPKDTLMISRTPEVTCVVVDVSHEDPEVKFNWYVDGVEVHNAKTKPREEQYNSTYRVVSVLTVLHQDWLNGKEYKCKVSNKALPAPIEKTISKAKGQPREPQVCTLPPSRDELTENQVSLTCLVKGFYPSDIAVEWESNGQPENNYKTTPPVLDSDGSFFLYSWLTVDKSRWQQGNVFSCSVMHEALHNHYTQKSLSLSPG
chain: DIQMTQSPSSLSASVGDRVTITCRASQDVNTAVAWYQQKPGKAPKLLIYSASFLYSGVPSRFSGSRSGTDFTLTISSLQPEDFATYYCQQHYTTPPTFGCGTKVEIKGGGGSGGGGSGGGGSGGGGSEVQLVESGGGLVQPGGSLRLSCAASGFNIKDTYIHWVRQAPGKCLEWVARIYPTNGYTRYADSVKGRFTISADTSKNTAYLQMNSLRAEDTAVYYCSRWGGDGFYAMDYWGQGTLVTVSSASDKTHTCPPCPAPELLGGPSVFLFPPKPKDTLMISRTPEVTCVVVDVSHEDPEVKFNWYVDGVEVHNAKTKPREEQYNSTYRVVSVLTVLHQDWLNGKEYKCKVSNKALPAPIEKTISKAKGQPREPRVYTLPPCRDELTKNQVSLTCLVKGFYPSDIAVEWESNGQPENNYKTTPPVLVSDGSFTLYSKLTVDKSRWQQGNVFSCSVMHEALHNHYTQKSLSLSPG
light: DIQMTQSPSSVSASVGDRVTITCRASQGISSWLAWYQQKPGKAPKLLIYAASSLQSGVPSRFSGSGSGTDFTLTISSLQPEDFATYYCQQGVSFPRTFGGGTKVEIKRTVAAPSPPSDEQLKSGTASVVCLLNNFYPREAKVQWKVDNALQSGNSQESVTEQDSKDSTYSLSSTLTLSKADYEKHKVYACEVTHQGLSSPVTKSFNRGEC
EC50 in KHYG-1-CD16V cell killing of Hs578T cells: 0.376 nM
fold potency against trastuzumab in triggering NK cell-mediated killing of SKBR-3 cells: 2.5 fold
